Measurements reported in FireProtDB (doi:10.1002/pro.164).

B1: M63A, Q6T418 (parent)
chain: MERKTFSFLFLLLLVLASDVAVERGEARTCMIKKEGWGKCLIDTTCAHSCKNRGYIGGNCKGMTRTCYCLVNC

Variants of: B1
Conditions: Vigna radiata; pH 7; 37 °C; GdnHCl; Fluorescence; Tris-HCl 10 mM; NaCl 100 mM; structure 1TI5; whole UniProt chain shown

MERKTFSFLFLLLLVLASDVAVERGEARTCMIKKEGWGKCLIDTTCAHSCKNRGYIGGNCKGATRTCYCLVNC [M63A] and MERKTFSFLFLLLLVLASDVAVERGEARTCMIKKEGWGKCLIDTTCAHSCKNRGYIGGNCKGMTRACYCLVNC [T66A] are within 1.5-fold of each other in “denaturant midpoint (higher = more stable)” value (“denaturant midpoint” below): 3.88 M for the first, 3.32 M for the second.

First: MERKTFSFLFLLLLVLASDVAVERGEARTAMIKKEGWGKCLIDTTCAHSCKNRGYIGGNCKGMTRTCYCLVNA [C30A C73A]
Second: MERKTFSFLFLLLLVLASDVAVERGEARTCMIKKEGWGKCLIDTTCAASCKNRGYIGGNCKGMTRTCYCLVNC [H48A]
The “denaturant midpoint” value of the first is 1.6-fold lower: 2.69 M for the first, 4.33 M for the second.

Compared with MERKTFSFLFLLLLVLASDVAVERGEARTCMIKKEGWGACLIDTTCAHSCKNRGYIGGNCKGMTRTCYCLVNC [K39A], MERKTFSFLFLLLLVLASDVAVERGEARTCMIKKEGWGKCLIDTTCAHSCKNRGYIGGNCKGMTRTCYCAVNC [L70A] is 1.9-fold higher in “denaturant midpoint” value: 2.48 M for the first, 4.69 M for the second.

MERKTFSFLFLLLLVLASDVAVERGEARTCMIKKEGWGKCLIDTTCAHSCKARGYIGGNCKGMTRTCYCLVNC [N52A] and MERKTFSFLFLLLLVLASDVAVERGEARTCMIKAEGWGKCLIDTTCAHSCKNRGYIGGNCKGMTRTCYCLVNC [K34A] are within 1.5-fold of each other in “denaturant midpoint” value: 3.49 M for the first, 2.53 M for the second.

MERKTFSFLFLLLLVLASDVAVERGEARTCMIKKEGWGKCLIDTTCAHSCKNRGYAGGNCKGMTRTCYCLVNC [I56A] and MERKTFSFLFLLLLVLASDVAVERGEARTCAIKKEGWGKCLIDTTCAHSCKNRGYIGGNCKGMTRTCYCLVNC [M31A] are within 1.5-fold of each other in “denaturant midpoint” value: 3.32 M for the first, 3.66 M for the second.

MERKTFSFLFLLLLVLASDVAVERGEARTCMIKKEGWGKCLIDTTCAHSCKNRGYIGGNCKGMTRTCACLVNC [Y68A] and MERKTFSFLFLLLLVLASDVAVERGEARTCMIAKEGWGKCLIDTTCAHSCKNRGYIGGNCKGMTRTCYCLVNC [K33A] are within 1.5-fold of each other in “denaturant midpoint” value: 3.73 M for the first, 2.57 M for the second.

MERKTFSFLFLLLLVLASDVAVERGEARTCMIKKEAWGKCLIDTTCAHSCKNRGYIGGNCKGMTRTCYCLVNC [G36A] and MERKTFSFLFLLLLVLASDVAVERGEARTCMIKKEGWGKCLIDTTCAHSCKNRGYIGGNCKGMTATCYCLVNC [R65A] are within 1.5-fold of each other in “denaturant midpoint” value: 3.27 M for the first, 2.97 M for the second.

MERKTFSFLFLLLLVLASDVAVERGEARTCMIKKEGWGKCLIDTTCAHSCKNRGAIGGNCKGMTRTCYCLVNC [Y55A] and MERKTFSFLFLLLLVLASDVAVERGEARTCMIKKEGWGKCLIDTTCAHSCKNRGYIGGNCKAMTRTCYCLVNC [G62A] are within 1.5-fold of each other in “denaturant midpoint” value: 3.1 M for the first, 3.44 M for the second.

MERKTFSFLFLLLLVLASDVAVERGEARTCMIKKEGWGKCLIDTACAHSCKNRGYIGGNCKGMTRTCYCLVNC [T45A] and MERKTFSFLFLLLLVLASDVAVERGEARTCMIKKEGWGKCLIDTTCAHSCKNRGYIGGNCAGMTRTCYCLVNC [K61A] are within 1.5-fold of each other in “denaturant midpoint” value: 4.5 M for the first, 3.31 M for the second.

MERKTFSFLFLLLLVLASDVAVERGEARTCMIKKEGWGKCLIDATCAHSCKNRGYIGGNCKGMTRTCYCLVNC [T44A] and MERKTFSFLFLLLLVLASDVAVERGEARTCMAKKEGWGKCLIDTTCAHSCKNRGYIGGNCKGMTRTCYCLVNC [I32A] are within 1.5-fold of each other in “denaturant midpoint” value: 3.32 M for the first, 2.93 M for the second.

MERKTFSFLFLLLLVLASDVAVERGEARTCMIKKEGWGKCLIDTTCAHSCKNRGYIGGNCKGMARTCYCLVNC [T64A] and MERKTFSFLFLLLLVLASDVAVERGEARTCMIKKEGWGKCLIATTCAHSCKNRGYIGGNCKGMTRTCYCLVNC [D43A] are within 1.5-fold of each other in “denaturant midpoint” value: 2.98 M for the first, 2.96 M for the second.

MERKTFSFLFLLLLVLASDVAVERGEARTCMIKKEGWGKCLIDTTCAHSCKNRGYIGGACKGMTRTCYCLVNC [N59A] and MERKTFSFLFLLLLVLASDVAVERGEARTCMIKKEGWGKCLIDTTCAHSCANRGYIGGNCKGMTRTCYCLVNC [K51A] are within 1.5-fold of each other in “denaturant midpoint” value: 2.64 M for the first, 2.81 M for the second.

MERKTFSFLFLLLLVLASDVAVERGEARTCMIKKEGWAKCLIDTTCAHSCKNRGYIGGNCKGMTRTCYCLVNC [G38A] and MERKTFSFLFLLLLVLASDVAVERGEARTCMIKKEGWGKCLIDTTCAHSCKNRGYIGGNCKGMTRTCYCLANC [V71A] are within 1.5-fold of each other in “denaturant midpoint” value: 4.66 M for the first, 3.14 M for the second.

MERKTFSFLFLLLLVLASDVAVERGEAATCMIKKEGWGKCLIDTTCAHSCKNRGYIGGNCKGMTRTCYCLVNC [R28A] and MERKTFSFLFLLLLVLASDVAVERGEARTCMIKKEGWGKCLIDTTCAHSCKNAGYIGGNCKGMTRTCYCLVNC [R53A] are within 1.5-fold of each other in “denaturant midpoint” value: 3.29 M for the first, 2.76 M for the second.

MERKTFSFLFLLLLVLASDVAVERGEARTCMIKKEGWGKCLIDTTCAHSCKNRGYIAGNCKGMTRTCYCLVNC [G57A] and MERKTFSFLFLLLLVLASDVAVERGEARTCMIKKEGWGKCLADTTCAHSCKNRGYIGGNCKGMTRTCYCLVNC [I42A] are within 1.5-fold of each other in “denaturant midpoint” value: 3.26 M for the first, 3.87 M for the second.

For MERKTFSFLFLLLLVLASDVAVERGEARTCMIKKEGWGKCLIDTTCAHACKNRGYIGGNCKGMTRTCYCLVNC [S49A], the “denaturant midpoint” value was 2.84 M.
